From patent US20160257748A1 (Amgen, published 2016)

Assays:
[1] = molecular target: T1, Human Epidermal Growth Factor Receptor (HER2) (human, UniProt P04626 23-1255); assay: cell-based or functional assay
[2] = molecular target: T1, Human Epidermal Growth Factor Receptor …; assay: cell-based or functional assay; remark: listed apart in the source
[3] = molecular target: T1, Human Epidermal Growth Factor Receptor …; assay: cell-based or functional assay; remark: listed apart in the source
folate receptor 1 [4] = molecular target: T2, folate receptor 1 (human, UniProt P15328 25-234); assay: cell-based or functional assay
folate receptor 1 [5] = molecular target: T2, folate receptor 1; assay: cell-based or functional assay; remark: listed apart in the source
[6] = molecular target: T1, Human Epidermal Growth Factor Receptor …; assay: FACS titration on T47D cells

T2 sequence (P15328 25-234): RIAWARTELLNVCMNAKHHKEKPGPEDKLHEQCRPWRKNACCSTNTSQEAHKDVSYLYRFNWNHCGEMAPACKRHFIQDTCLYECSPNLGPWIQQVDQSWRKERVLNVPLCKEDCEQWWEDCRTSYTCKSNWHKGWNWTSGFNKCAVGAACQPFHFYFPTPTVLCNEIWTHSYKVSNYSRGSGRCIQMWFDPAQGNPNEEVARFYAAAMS

B1: aHER2-Fc-aCD3 (bispecific antibody)
chain 1: EVQLLEQSGAELVRPGALVKLSCKASGFKIKDYFVNWVKQRPEQGLEWIGWIDPENDNSLYGPNFQDKASITADTSSNTGYLQLSGLTSEDTAVYYCALYYGSRGDAMDYWGQGTTVTVSSASTKGPSVFPLAPSSKSTSGGTAALGCLVKDYFPEPVTVSWNSGALTSGVHTFPAVLQSSGLYSLSSVVTVPSSSLGTQTYICNVNHKPSNTKVDKRVEPKSCDKTHTCPPCPAPEAAGGPSVFLFPPKPKDTLMISRTPEVTCVVVDVSHEDPEVKFNWYVDGVEVHNAKTKPREEQYNSTYRVVSVLTVLHQDWLNGKEYKCKVSNKALPAPIEKTISKAKGQPREPQVYTLPPSRKEMTKNQVSLTCLVKGFYPSDIAVEWESNGQPENNYKTTPPVLKSDGSFFLYSKLTVDKSRWQQGNVFSCSVMHEALHNHYTQKSLSLSPGKAAAGGGGSGGGGSEVQLVESGGGLVQPGGSLKLSCAASGFTFNSYAMNWVRQAPGKGLEWVARIRSKYNNYATYYADSVKGRFTISRDDSKNTAYLQMNNLKTEDTAVYYCVRHGNFGNSYVSWWAYWGQGTLVTVSSASTKGPSVFPLAPSSKSTSGGTAALGCLVKDYFPEPVTVSWNSGALTSGVHTFPAVLQSSGLYSLSSVVTVPSSSLGTQTYICNVNHKPSNTKVDKRVEPKSC
chain 2: not shown
With B1 the “EC50, T cell dependent cytolysis of JIMT-1 cells” value [1] was 0.0565 nM, the “EC50 (pM), % CD25+ T cells (with SKOV-3 cells)” value [2] was 79.3 pM and the “EC50 (pM), % of T cells that are dividing (with SKOV-3 cells)” value [2] was 76.7 pM. For the same binder, the “EC50 (pM), T cell dependent cytolysis of BT474 cells” value [3] was 638 pM and the “EC50 (pM), T cell dependent cytolysis of SKOV-3 cells” value [3] was 165 pM.

B2: aCD3-Fc-aHER2 (bispecific antibody)
chain 1: EVQLVESGGGLVQPGGSLKLSCAASGFTFNSYAMNWVRQAPGKGLEWVARIRSKYNNYATYYADSVKGRFTISRDDSKNTAYLQMNNLKTEDTAVYYCVRHGNFGNSYVSWWAYWGQGTLVTVSSASTKGPSVFPLAPSSKSTSGGTAALGCLVKDYFPEPVTVSWNSGALTSGVHTFPAVLQSSGLYSLSSVVTVPSSSLGTQTYICNVNHKPSNTKVDKRVEPKSCDKTHTCPPCPAPEAAGGPSVFLFPPKPKDTLMISRTPEVTCVVVDVSHEDPEVKFNWYVDGVEVHNAKTKPREEQYNSTYRVVSVLTVLHQDWLNGKEYKCKVSNKALPAPIEKTISKAKGQPREPQVYTLPPSRKEMTKNQVSLTCLVKGFYPSDIAVEWESNGQPENNYKTTPPVLKSDGSFFLYSKLTVDKSRWQQGNVFSCSVMHEALHNHYTQKSLSLSPGKAAAGGGGSGGGGSEVQLLEQSGAELVRPGALVKLSCKASGFKIKDYFVNWVKQRPEQGLEWIGWIDPENDNSLYGPNFQDKASITADTSSNTGYLQLSGLTSEDTAVYYCALYYGSRGDAMDYWGQGTTVTVSSASTKGPSVFPLAPSSKSTSGGTAALGCLVKDYFPEPVTVSWNSGALTSGVHTFPAVLQSSGLYSLSSVVTVPSSSLGTQTYICNVNHKPSNTKVDKRVEPKSC
chain 2: not shown
B2 was tested, and the “EC50, T cell dependent cytolysis of JIMT-1 cells” value [1] was 0.0518 nM.

B3: aFOLR1-Fc-aCD3 (bispecific antibody)
chain 1: QVQLQESGPGLVKPSQTLSLTCTVSGGSISSGAYYWTWIRQHPGKGLEWIGYIYYSGSTYYNPSLKSRVSISIDTSKNQFSLKLSSVTAADTAVYYCARGSSSWFDYWGQGTLVTVSSASTKGPSVFPLAPSSKSTSGGTAALGCLVKDYFPEPVTVSWNSGALTSGVHTFPAVLQSSGLYSLSSVVTVPSSSLGTQTYICNVNHKPSNTKVDKRVEPKSCDKTHTCPPCPAPEAAGGPSVFLFPPKPKDTLMISRTPEVTCVVVDVSHEDPEVKFNWYVDGVEVHNAKTKPREEQYNSTYRVVSVLTVLHQDWLNGKEYKCKVSNKALPAPIEKTISKAKGQPREPQVYTLPPSRKEMTKNQVSLTCLVKGFYPSDIAVEWESNGQPENNYKTTPPVLKSDGSFFLYSKLTVDKSRWQQGNVFSCSVMHEALHNHYTQKSLSLSPGKAAAGGGGSGGGGSEVQLVESGGGLVQPGGSLKLSCAASGFTFNSYAMNWVRQAPGKGLEWVARIRSKYNNYATYYADSVKGRFTISRDDSKNTAYLQMNNLKTEDTAVYYCVRHGNFGNSYVSWWAYWGQGTLVTVSSASTKGPSVFPLAPSSKSTSGGTAALGCLVKDYFPEPVTVSWNSGALTSGVHTFPAVLQSSGLYSLSSVVTVPSSSLGTQTYICNVNHKPSNTKVDKRVEPKSC
chain 2: not shown
B3 was tested, and the “EC50 (concentration for half maximal lysis), T cell dependent cytolysis of Cal-51 cells” value (folate receptor 1 [4]) was 0.114 nM, the “EC50 (concentration for half maximal lysis), T cell dependent cytolysis of T47D cells” value (folate receptor 1 [4]) was 0.105 nM and the “EC50 (pM), T cell dependent cytolysis of Cal-51 cells” value (folate receptor 1 [5]) was 60.9 pM.

B4: aCD3-Fc-aFOLR1 (bispecific antibody)
chain 1: EVQLVESGGGLVQPGGSLKLSCAASGFTFNSYAMNWVRQAPGKGLEWVARIRSKYNNYATYYADSVKGRFTISRDDSKNTAYLQMNNLKTEDTAVYYCVRHGNFGNSYVSWWAYWGQGTLVTVSSASTKGPSVFPLAPSSKSTSGGTAALGCLVKDYFPEPVTVSWNSGALTSGVHTFPAVLQSSGLYSLSSVVTVPSSSLGTQTYICNVNHKPSNTKVDKRVEPKSCDKTHTCPPCPAPEAAGGPSVFLFPPKPKDTLMISRTPEVTCVVVDVSHEDPEVKFNWYVDGVEVHNAKTKPREEQYNSTYRVVSVLTVLHQDWLNGKEYKCKVSNKALPAPIEKTISKAKGQPREPQVYTLPPSRKEMTKNQVSLTCLVKGFYPSDIAVEWESNGQPENNYKTTPPVLKSDGSFFLYSKLTVDKSRWQQGNVFSCSVMHEALHNHYTQKSLSLSPGKAAAGGGGSGGGGSQVQLQESGPGLVKPSQTLSLTCTVSGGSISSGAYYWTWIRQHPGKGLEWIGYIYYSGSTYYNPSLKSRVSISIDTSKNQFSLKLSSVTAADTAVYYCARGSSSWFDYWGQGTLVTVSSASTKGPSVFPLAPSSKSTSGGTAALGCLVKDYFPEPVTVSWNSGALTSGVHTFPAVLQSSGLYSLSSVVTVPSSSLGTQTYICNVNHKPSNTKVDKRVEPKSC
chain 2: not shown
For B4, the “EC50 (pM), T cell dependent cytolysis of Cal-51 cells” value (folate receptor 1 [5]) was 306 pM.

B5: aCD3/HER2 heterodimer (bispecific antibody)
chain 1: EVQLVESGGGLVQPGGSLKLSCAASGFTFNSYAMNWVRQAPGKGLEWVARIRSKYNNYATYYADSVKGRFTISRDDSKNTAYLQMNNLKTEDTAVYYCVRHGNFGNSYVSWWAYWGQGTLVTVSSGGGGSGGGGSELVMTQTPSSLSASLGDRVTISCRASQDISNYLNWYQQKPDGTVKLLIYYTSRLHSGVPSRFSGSGSGTDYSLTISNLEQEDIATYFCQQGNTLPLTFGAGTKLEIKASTKGPSVFPLAPCSRSTSESTAALGCLVKDYFPEPVTVSWNSGALTSGVHTFPAVLQSSGLYSLSSVVTVPSSNFGTQTYTCNVDHKPSNTKVDKTVGGGGSAAAEPKSSDKTHTCPPCPAPEAAGGPSVFLFPPKPKDTLMISRTPEVTCVVVDVSHEDPEVKFNWYVDGVEVHNAKTKPREEQYNSTYRVVSVLTVLHQDWLNGKEYKCKVSNKALPAPIEKTISKAKGQPREPQVYTLPPSREEMTKNQVSLTCLVKGFYPSDIAVEWESNGQPENNYDTTPPVLDSDGSFFLYSDLTVDKSRWQQGNVFSCSVMHEALHNHYTQKSLSLSPGK
chain 2: not shown
notes: also called P136797.3; positive control heterodimeric antibody
B5: binds [6].
